Assay results taken from IntAct's records for PubMed 19037259.

B1: Protein VAC14 homolog (Homo sapiens), Q08AM6 (parent)
chain: MNPEKDFAPLTPNIVRALNDKLYEKRKVAALEIEKLVREFVAQNNTVQIKHVIQTLSQEFALSQHPHSRKGGLIGLAACSIALGKDSGLYLKELIEPVLTCFNDADSRLRYYACEALYNIVKVARGAVLPHFNVLFDGLSKLAADPDPNVKSGSELLDRLLKDIVTESNKFDLVSFIPLLRERIYSNNQYARQFIISWILVLESVPDINLLDYLPEILDGLFQILGDNGKEIRKMCEVVLGEFLKEIKKNPSSVKFAEMANILVIHCQTTDDLIQLTAMCWMREFIQLAGRVMLPYSSGILTAVLPCLAYDDRKKSIKEVANVCNQSLMKLVTPEDDELDELRPGQRQAEPTPDDALPKQEGTASGGPDGSCDSSFSSGISVFTAASTERAPVTLHLDGIVQVLNCHLSDTAIGMMTRIAVLKWLYHLYIKTPRKMFRHTDSLFPILLQTLSDESDEVILKDLEVLAEIASSPAGQTDDPGPLDGPDLQASHSELQVPTPGRAGLLNTSGTKGLECSPSTPTMNSYFYKFMINLLKRFSSERKLLEVRGPFIIRQLCLLLNAENIFHSMADILLREEDLKFASTMVHALNTILLTSTELFQLRNQLKDLKTLESQNLFCCLYRSWCHNPVTTVSLCFLTQNYRHAYDLIQKFGDLEVTVDFLAEVDKLVQLIECPIFTYLRLQLLDVKNNPYLIKALYGLLMLLPQSSAFQLLSHRLQCVPNPELLQTEDSLKAAPKSQKADSPSIDYAELLQHFEKVQNKHLEVRHQRSGRGDHLDRRVVL
B2: Vacuole morphology and inheritance protein 14 (Saccharomyces cerevisiae), Q06708 (parent)
chain: MEKSIAKGLSDKLYEKRKAAALELEKLVKQCVLEGDYDRIDKIIDELCRDYAYALHQPMARNAGLMGLAATAIALGINDVGRYLRNILPPVLACFGDQNDQVRFYACESLYNIAKIAKGEILVYFNEIFDVLCKISADTENSVRGAAELLDRLIKDIVAERASNYISIVNNGSHGLLPAIKTDPISGDVYQEEYEQDNQLAFSLPKFIPLLTERIYAINPDTRVFLVDWLKVLLNTPGLELISYLPSFLGGLFTFLGDSHKDVRTVTHTLMDSLLHEVDRISKLQTEIKMKRLERLKMLEDKYNNSSTPTKKADGALIAEKKKTLMTALGGLSKPLSMETDDTKLSNTNETDDERHLTSQEQLLDSEATSQEPLRDGEEYIPGQDINLNFPEVITVLVNNLASSEAEIQLIALHWIQVILSISPNVFIPFLSKILSVLLKLLSDSDPHITEIAQLVNGQLLSLCSSYVGKETDGKIAYGPIVNSLTLQFFDSRIDAKIACLDWLILIYHKAPNQILKHNDSMFLTLLKSLSNRDSVLIEKALSLLQSLCSDSNDNYLRQFLQDLLTLFKRDTKLVKTRANFIMRQISSRLSPERVYKVISSILDNYNDTTFVKMMIQILSTNLITSPEMSSLRNKLRTCEDGMFFNSLFKSWCPNPVSVISLCFVAENYELAYTVLQTYANYELKLNDLVQLDILIQLFESPVFTRMRLQLLEQQKHPFLHKCLFGILMIIPQSKAFETLNRRLNSLNIWTSQSYVMNNYIRQRENSNFCDSNSDISQRSVSQSKLHFQELINHFKAVSEEDEYSSDMIRLDHGANNKSLLLGSFLDGIDEDKQEIVTPISPMNEAINEEMESPNDNSSVILKDSGSLPFNRNVSDKLKK
partner: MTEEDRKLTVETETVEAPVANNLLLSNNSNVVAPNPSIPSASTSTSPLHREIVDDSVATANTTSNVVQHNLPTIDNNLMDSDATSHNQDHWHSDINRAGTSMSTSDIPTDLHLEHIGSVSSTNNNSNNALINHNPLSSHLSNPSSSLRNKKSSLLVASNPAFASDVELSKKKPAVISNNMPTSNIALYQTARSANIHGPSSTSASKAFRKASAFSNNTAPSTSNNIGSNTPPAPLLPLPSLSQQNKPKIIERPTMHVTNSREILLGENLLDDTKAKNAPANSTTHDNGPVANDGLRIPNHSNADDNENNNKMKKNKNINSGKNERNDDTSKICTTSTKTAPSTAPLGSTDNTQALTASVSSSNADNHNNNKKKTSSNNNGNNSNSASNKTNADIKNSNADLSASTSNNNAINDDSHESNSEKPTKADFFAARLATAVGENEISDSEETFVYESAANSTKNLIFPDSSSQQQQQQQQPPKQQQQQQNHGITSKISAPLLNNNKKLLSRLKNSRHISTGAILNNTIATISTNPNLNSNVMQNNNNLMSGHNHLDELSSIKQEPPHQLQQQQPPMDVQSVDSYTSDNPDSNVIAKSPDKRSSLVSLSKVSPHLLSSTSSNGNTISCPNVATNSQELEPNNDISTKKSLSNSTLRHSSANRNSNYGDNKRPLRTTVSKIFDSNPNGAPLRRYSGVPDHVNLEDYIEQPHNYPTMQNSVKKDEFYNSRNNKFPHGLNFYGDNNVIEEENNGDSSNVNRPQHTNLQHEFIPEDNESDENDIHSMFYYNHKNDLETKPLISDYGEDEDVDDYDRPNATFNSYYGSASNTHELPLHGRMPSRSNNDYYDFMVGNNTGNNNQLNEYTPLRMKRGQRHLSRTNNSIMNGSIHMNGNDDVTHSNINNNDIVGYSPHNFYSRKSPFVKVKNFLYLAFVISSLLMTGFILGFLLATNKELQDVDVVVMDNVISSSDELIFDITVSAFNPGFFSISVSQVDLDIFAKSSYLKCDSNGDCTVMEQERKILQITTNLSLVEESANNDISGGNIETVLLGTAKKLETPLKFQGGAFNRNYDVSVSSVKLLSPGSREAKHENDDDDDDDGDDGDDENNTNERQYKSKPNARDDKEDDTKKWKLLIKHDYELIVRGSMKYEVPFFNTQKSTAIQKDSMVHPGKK
B3: Vacuole morphology and inheritance protein 14 (Saccharomyces cerevisiae), Q06708 (parent)
chain: B2 chain
partner: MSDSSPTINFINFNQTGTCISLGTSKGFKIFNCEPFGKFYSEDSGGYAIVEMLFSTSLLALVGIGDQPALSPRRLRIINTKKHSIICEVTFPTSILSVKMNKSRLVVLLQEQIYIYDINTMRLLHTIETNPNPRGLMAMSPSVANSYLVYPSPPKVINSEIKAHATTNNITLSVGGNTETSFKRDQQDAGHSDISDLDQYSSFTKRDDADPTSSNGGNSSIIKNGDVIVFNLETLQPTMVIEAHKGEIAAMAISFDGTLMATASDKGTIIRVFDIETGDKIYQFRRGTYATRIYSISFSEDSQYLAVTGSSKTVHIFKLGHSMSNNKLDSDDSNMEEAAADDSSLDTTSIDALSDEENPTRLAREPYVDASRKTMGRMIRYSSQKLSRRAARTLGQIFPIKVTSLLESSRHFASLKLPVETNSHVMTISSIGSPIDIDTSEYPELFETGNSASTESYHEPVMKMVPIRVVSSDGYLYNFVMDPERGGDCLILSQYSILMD
B4: Protein VAC14 homolog (Homo sapiens), Q08AM6 (parent)
chain: B1 chain
partner: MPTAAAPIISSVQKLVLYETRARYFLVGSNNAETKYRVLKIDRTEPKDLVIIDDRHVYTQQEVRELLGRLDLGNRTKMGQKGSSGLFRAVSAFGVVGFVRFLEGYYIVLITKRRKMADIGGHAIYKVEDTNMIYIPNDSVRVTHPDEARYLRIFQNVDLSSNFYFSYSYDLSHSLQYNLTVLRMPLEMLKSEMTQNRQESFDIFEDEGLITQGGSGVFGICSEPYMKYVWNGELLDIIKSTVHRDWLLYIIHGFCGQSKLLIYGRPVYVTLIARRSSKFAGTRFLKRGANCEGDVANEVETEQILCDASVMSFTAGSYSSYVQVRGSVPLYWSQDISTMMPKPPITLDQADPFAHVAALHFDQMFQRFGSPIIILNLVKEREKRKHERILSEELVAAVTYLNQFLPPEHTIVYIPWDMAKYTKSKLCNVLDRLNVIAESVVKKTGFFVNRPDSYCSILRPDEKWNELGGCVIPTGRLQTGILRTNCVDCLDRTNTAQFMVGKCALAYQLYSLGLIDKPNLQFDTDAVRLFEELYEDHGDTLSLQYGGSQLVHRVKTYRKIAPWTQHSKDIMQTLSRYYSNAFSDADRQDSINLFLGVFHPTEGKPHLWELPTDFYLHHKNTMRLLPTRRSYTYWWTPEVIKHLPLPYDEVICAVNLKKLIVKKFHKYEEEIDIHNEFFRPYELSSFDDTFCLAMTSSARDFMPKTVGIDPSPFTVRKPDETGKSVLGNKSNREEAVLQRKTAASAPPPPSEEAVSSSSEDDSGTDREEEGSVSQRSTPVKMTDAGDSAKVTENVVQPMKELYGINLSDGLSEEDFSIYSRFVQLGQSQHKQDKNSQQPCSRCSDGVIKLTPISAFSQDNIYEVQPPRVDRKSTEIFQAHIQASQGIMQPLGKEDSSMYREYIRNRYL
B5: Vacuole morphology and inheritance protein 14 (Saccharomyces cerevisiae), Q06708 (parent)
chain: B2 chain

Variants of: B1
Conditions: with fyv1_human PIKFYVE

Row | Variant | effect of a mutation on the interaction
1 | L156R | disrupting interaction

Variants of: B2
Conditions: with vac7_yeast VAC7, P53950

Row | Variant | effect of a mutation on the interaction
2 | H56Y | disrupting interaction
3 | L329I | disrupting interaction
4 | R61K | disrupting interaction
5 | Q101R | disrupting interaction

Variants of: B2
Conditions: with vac7_yeast VAC7, P53950
Remark: another data set of the same source

Row | Variant | effect of a mutation on the interaction
6 | L149R | disrupting interaction

Variants of: B3
Conditions: with atg18_yeast ATG18, P43601

Row | Variant | effect of a mutation on the interaction
7 | Q101R | disrupting interaction
8 | H56Y | disrupting interaction
9 | R61K | disrupting interaction
10 | L329I | disrupting interaction

Variants of: B3
Conditions: with atg18_yeast ATG18, P43601
Remark: another data set of the same source

Row | Variant | effect of a mutation on the interaction
11 | L149R | disrupting interaction

Variants of: B4
Conditions: with fig4_human FIG4, Q92562

Row | Variant | effect of a mutation on the interaction
12 | L156R | disrupting interaction

Variants of: B5
Conditions: with fab1_yeast FAB1, P34756
Chain of fab1_yeast FAB1, P34756 (P34756 whole entry): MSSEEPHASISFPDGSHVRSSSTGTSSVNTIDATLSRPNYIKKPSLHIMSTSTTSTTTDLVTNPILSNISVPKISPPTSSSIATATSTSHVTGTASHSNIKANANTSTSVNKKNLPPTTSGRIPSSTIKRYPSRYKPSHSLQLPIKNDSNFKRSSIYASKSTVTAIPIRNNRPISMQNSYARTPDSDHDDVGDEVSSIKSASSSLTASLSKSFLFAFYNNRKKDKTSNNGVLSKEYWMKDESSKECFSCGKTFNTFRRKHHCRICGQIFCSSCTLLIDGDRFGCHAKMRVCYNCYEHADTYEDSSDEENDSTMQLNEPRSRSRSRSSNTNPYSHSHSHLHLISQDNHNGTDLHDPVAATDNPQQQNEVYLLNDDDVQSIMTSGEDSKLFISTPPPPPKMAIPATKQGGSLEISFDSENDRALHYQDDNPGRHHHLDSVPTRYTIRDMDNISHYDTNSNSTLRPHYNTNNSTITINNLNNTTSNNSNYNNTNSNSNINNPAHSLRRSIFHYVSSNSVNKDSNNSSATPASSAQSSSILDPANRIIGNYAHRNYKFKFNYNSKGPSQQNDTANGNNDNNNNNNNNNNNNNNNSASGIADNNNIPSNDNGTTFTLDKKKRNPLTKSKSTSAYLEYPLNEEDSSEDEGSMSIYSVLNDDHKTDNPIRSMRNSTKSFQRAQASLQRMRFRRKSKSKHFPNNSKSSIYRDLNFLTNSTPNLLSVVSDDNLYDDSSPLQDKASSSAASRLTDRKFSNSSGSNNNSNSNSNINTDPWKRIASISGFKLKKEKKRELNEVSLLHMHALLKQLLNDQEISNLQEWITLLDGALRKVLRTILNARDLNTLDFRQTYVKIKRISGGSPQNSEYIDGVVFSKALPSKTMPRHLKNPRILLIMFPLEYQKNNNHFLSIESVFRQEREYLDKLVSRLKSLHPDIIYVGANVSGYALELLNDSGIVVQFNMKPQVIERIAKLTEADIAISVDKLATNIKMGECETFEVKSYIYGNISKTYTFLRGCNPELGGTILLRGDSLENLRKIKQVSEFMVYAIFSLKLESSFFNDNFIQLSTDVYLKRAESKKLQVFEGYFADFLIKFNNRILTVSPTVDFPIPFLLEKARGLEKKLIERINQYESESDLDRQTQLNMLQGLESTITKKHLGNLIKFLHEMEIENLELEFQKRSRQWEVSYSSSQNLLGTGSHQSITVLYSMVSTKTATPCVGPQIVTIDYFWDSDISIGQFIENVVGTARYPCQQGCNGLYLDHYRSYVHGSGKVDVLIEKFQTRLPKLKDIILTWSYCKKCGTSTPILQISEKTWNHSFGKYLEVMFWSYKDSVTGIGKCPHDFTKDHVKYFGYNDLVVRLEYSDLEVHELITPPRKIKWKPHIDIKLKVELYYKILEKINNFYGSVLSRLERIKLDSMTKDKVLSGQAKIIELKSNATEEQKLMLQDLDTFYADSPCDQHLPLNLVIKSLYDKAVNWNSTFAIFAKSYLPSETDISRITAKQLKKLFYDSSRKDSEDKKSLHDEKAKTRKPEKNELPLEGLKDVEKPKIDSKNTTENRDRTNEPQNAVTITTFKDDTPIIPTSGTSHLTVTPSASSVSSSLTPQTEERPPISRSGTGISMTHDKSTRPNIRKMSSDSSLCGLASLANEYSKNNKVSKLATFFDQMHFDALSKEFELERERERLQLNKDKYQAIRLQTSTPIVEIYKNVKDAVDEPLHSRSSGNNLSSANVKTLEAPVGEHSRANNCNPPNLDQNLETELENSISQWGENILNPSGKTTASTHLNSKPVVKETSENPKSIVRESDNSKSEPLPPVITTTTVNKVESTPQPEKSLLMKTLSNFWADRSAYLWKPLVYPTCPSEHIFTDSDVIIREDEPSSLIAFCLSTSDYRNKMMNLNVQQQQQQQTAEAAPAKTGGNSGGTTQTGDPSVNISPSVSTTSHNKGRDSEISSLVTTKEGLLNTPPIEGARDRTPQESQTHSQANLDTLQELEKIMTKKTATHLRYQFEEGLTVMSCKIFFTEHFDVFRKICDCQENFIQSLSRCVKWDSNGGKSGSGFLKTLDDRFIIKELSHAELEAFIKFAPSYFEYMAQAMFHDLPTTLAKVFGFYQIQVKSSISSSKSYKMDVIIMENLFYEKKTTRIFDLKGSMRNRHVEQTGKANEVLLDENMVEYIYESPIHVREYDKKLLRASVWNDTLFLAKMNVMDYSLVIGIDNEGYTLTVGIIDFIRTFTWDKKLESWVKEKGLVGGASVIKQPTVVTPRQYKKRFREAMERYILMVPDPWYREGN

Row | Variant | effect of a mutation on the interaction
13 | L149R | disrupting interaction
